Data on 16 sequences can be found in the DeepSol protein solubility set.

The data set is described as follows: soluble on expression in E. coli; label from the status in PepcDB or PDB records.
As for “MHIISLLLENEPGALSRVVGLFSQRNYNIESLTVAPTEDPTLSRLTLTTVGHDEVIEQITKNLNKLIEVVKLVDL”, the “soluble on expression in E. coli” value is reported as “soluble”.

Consider “MHILDIWHRRNSRSYIAHLRSLGIRIGDGCIFRDPLTTRIDVSRPALVSIGSNVDMNTYFQILTHDWASFVFRNKYHDFVNSSGRVEIGSNIYIGTNVIVLRGVTIGDNCVIGAGSVVTHDIPANSVAVGAPCRVVCSLEHHHHHH”, for which the “soluble on expression in E. coli” value is “not soluble”.

Turning to “MHKNGKFIPLLALGFTFFLSGCDYFADKHLVEEMKEQQKEQETKINLLEKQQKEQEAKINLLEKQQATIINTTKKVTEVVGRVERKQRLFDYTELDPSQTHYFIINNGNIGLAGRILSIEPIDNGSVIHLDLVNLLSIPVSNLAFNMTWGTKKPSEAKDLPRWKQLLLNTKMDSTIELLPGAWTNVTLTLKGVSPNNLKYLKIGIDMENVIFDSIQPINDTKKKPKK”, the “soluble on expression in E. coli” value is “not soluble”.

As for “MHLHFTPRQIVEKLDQYIIGQKDAKKAVAVALRNRYRRSKLAENLRDEIAPKNILMIGPTGVGKTEVARRMAKLVGAPFIKVEATKFTEVGYVGRDVESMVRDLVETSVRIVKEEMVVKVQDKAEEQANQRLVEILVPSPEKQSGFKNPLEMLFGGTQNSNQTTDSQEDVEIEKKRQDVERKLAAGLLEDEIVSIEVTEQQSSMFDMLQGTGMEQMGMNFQDALGSFMPKKTKKRKLSVKEARKVLTNEEAQRLIDMDEVTQEAVYRAEQLGIIFIDEIDKIAGKQSNSVDVSREGVQRDILPIVEGSNVATKYGSVKTDYILFVAAGAFHMSKPSDLIPELQGRFPIRVELTKLSTDDFVKILIEPDNALIKQYMALLATEGIEIEFSDEAIRKIAEIAYQVNQDTDNIGARRLHTIMEKLLEDLSFEASEITLEKITITPQYVEEKLATIAKNKDVSQFIL”, the “soluble on expression in E. coli” value is given as “not soluble”.

Consider “MHRKISCGINDIKSEFFEAERMNNSVTVEVTRGNLVESRHQGLAVVVDGDGGVLFSAGDIERGIFPRSACKAMQALPLVESGATDAYGFGNRELALACSSHSGEDAHAELAAAMLAKAGRDVDTLECGAHWSSDQKTIIHQARTLEKPTALHNNCSGKHSGFICACCHTGTDPKGYVGYDHPLQRQIRATMESLTGAALGHDNCGVDGCSIPTYAVPLKGLAHGFAKMATGRGLEAERAKASRRLIEACMAEPFYVAGTGRACTKLMQIAPGKIFAKTGAEGVFIAALPNQGIAMAVKCEDGTTRAAEAMVTALLARYFDDGSAEQQALKGMANRQMRNWNGIHVGDISVIGLAAALEHHHHHH”, for which the “soluble on expression in E. coli” value is recorded as “soluble”.

For the sequence “MHRKRERERERERERERERERERERERERERGRDEETSKEKRVTET”, the “soluble on expression in E. coli” value is given as “soluble”.

For “MHRSFAAFSILLVAIPQASSFLFGGGCCGAPAVQSCCGSTSWAYAPPQVIGYERIPLYAKVPMPPPPTYVQPPLVGYVSPQQPVAPQGYQQQPQQQFMGQVEQGVEITPDQINSGYQPQQQMGFQSQQQQFSSIPNSGSSNYGADSSFSGSQPAGLVQSVASSAAFEAAGVAPSARRLRKFKN”, the “soluble on expression in E. coli” value was “not soluble”.

For “MHRSFGNLEFFRFQLSNQCPALQNIELEVPMHIERLDISEFGVEINRTSYAFQVKTDEEIDQTFDVDEFGMIDYDLVVDQNPDTILLDNRDPSNMHLELSYELQLLQNEYDRIEGLNGNDGIEDIEGLAKAREALEKRKTRYQFKYLKLMAREMGIKSQISIAREPLDQHIRFSINSPDRVPLYEEHLAYNKKIHEAQRSLLEKLFVGRPTICVKSLFIDSCFIVCIPKNMQFKVKHLSLSCNNFDEDLNAIRPLLHVSSFPLESIEVYGKWDSLDPILKTCGVLYFPGGCKIEKLLKLQNFHRKVHVNIFDALKQLPPSVKSWLENRQEIGTEYTFDISNEDQIILFLDEMKESNADRIVDEAELHVKLRMDNSTELYISYDPARDNVGRMKMKFQVQ”, the “soluble on expression in E. coli” value is “not soluble”.

Regarding “MHVAMALADIDRVGGVVIIDPVVHPLTPKHPPNQAERGQIRADRCSTAVFAWLFHEWNATGRSALMRGLTCFAGNTNAQPKHPRRAFRDRLGSTGPRPPRLTVASTPSRQPHHRRILIVTKAKSGSVAPELDTPTDLPPQSVEKISTALNGLLADSFALYLKTKNFHWHISGRHFRDYHLLLDEQSAQILATTDDLAERVRKVGGTTLRSIGHISKLQSIQDNNDDYVPPREMLRELMNDNKKVAAAMRKAHEIVDECKDAASAGLLENFIDETEKRTWFLFEATRQEGANEA”, the “soluble on expression in E. coli” value is “not soluble”.

As for “MHVNKKIIYVSHDAHFHGAQLLSLHTIKALKENFHYSVAIISIRTGILIHDFQKYGPVYCLEEDYPTENKVESLIKKLLSQDYTIAICSTVISGDIVALLAKHNIKVISLIHELPHLIQQYSAEGKARKIAESAHKIVFPSQYVYEKFHTITQLDHQKCHILPQGLFNHNPYKNNIAKARNELRKKHNLPLDSKIILGVGFADHRKGIDLFSLIAYSVRKIHKNIHFIWVGKTDVHFLNTLSQRYTAHFTLVEPTPDIGLYNAGADLYLLTSREDPFPNVVLEALDTKVPVIGFKNAGGFGDVVTEQTGALVDYLNLPMMLEKIYEFIGDEDLRLQKGTFGQELIEKNFNFLHYIYQLLNLLEHNYKKISVIVPNYNYEKYLSERVKSILNQTYPLYELIFLDDASTDNSVSIFEKLLSNENKHHLKIQQIINDKNSGSVFKQ”, the “soluble on expression in E. coli” value was “not soluble”.

On to “MHVVYPGSFDPLTNGHLDVIQRASRLFEKVTVAVLENPSKRGQYLFSAEERLAIIREATAHLANVEAATFSGLLVDFVRRVGAQAIVKGLRAVSDYEYELQMAHLNRQLYPGLETLFILAATRYSFVSSTMVKEIARYGGDVSKLVPPATLRALKAKLGQ”, for which the “soluble on expression in E. coli” value is reported as “soluble”.

Turning to “MIAITGATGQLGHYIIESLMKTVPASQIVAIVRNPAKAQALAAQGITVRQADYSDEAALTSALQGVEKLLLISSSEVGQRAPQHRNVINAAKAAGVKFIAYTSLLHADTSPLGLADEHIETEKMLADSGIVYTLLRNGWYSENYLASAPAALEHGVFIGAAGDGKIASATRADYATAAARVISEAGHEGKVYELAGDSAWTLTQLAAELTKQSGKQVTYQNLSEADFAAALKSVGLPDGLADMLADSDVGASKGGLFDNSKTLSKLIGCPTTTLAESVSHLFNVNN”, the “soluble on expression in E. coli” value is “not soluble”.

As for “MIAQLPSELLSLQLPLRIRIGDAQAFDLGPDPQVTMVIRDPSLLTEITHPSLDALGKAYVEKRLDIEGPISQVIGIGDALSEALGEPDGGAPPVRESHDKDTDAEAIHYHYDLSNDFYQLWLDPEMVYSCAYFETGKEDLATAQLAKLRHLCRKLRLQPGEKLLDVGCGWGGLARLAAREFGVEVTGITLSKEQLALGRERVKAEGLEDRVTLKLLDYRDLPRDGRFDKVVSVGMFEHVGHANLGLYFQQLYEAVRPGGLVMNHGITSRYTDGRPVGKGAGDFIDRYVFPHGELPHLSLAVARMSEAGLEVVDVESLRLHYARTLDFWSANLEARLKEAARLVPEETLRIWRLYLAGCAYGFKRGWINL”, the “soluble on expression in E. coli” value is “not soluble”.

Consider “MICSLFVDKVNKETYLCAMKQEYISRIRSFNRYYTKILGILNKYYLGSELGLPEVRIIQDVYLHPDRSSKDISNELNMDKGLLSRLLKQLEQKEYIFRKSTEKDNRMGLVNLTEKGCEVYYRLNTAANQSIERIFSHLEDRQLQRLVHCMDSIYKIINSVETGLTVDNNEPIVIRPIEESDNASIASVLRASVEEHGAPKVGTFYDDPHTDRMFQTFNIKGAEYWIVESNGVILGGGGFYPTKGLPHGYAELSKFHFRPELRGRGIGKRLLQFIEQRAVSAGYVYMYIVSYHQFGNAVSMYEKYGYEHIDNALDQSGLYQDAPFHMVKAL”, for which the “soluble on expression in E. coli” value is “not soluble”.

As for “MIDGIESGLGIAQAFPSVTGEAKPGNLAADGGKFFGELVSKVSELQAQSDTAIKGLVSGESKGLHEVMIAMEKSSISFQFLSQVRNKAVEAYQEVMRMQV”, the “soluble on expression in E. coli” value was “not soluble”.

For the sequence “MIDKHVACERPLTVYLNWRPIVTLMTLGAKPESLALGYLKNQGFISDVSQLESVIVDWGVNSAAVLTREQTADIDKKLSEKTVTSGCGQGTVYGSFMQDLEGIQLPRPSLKQSTLYSLLKNINEYNDTYKNAGAVHGCGVCEADQILAFVEDVGRHNAVDTLAGDMWLAQDRGDNKIFYTTGRLTSEMVIKVAKMGIPVLLSRSGVTQMGLELAQNLGITIIARAKGRHFLVYHGSENLEFDVNTSPSKLEHHHHHH”, the “soluble on expression in E. coli” value is recorded as “not soluble”.
